Laboratory results taken from US20220204580A1 (AstraZeneca / MedImmune, published 2022).
Numbered stars: 1 amine (or outer) side, 2 acyl side, 3 side chain; on linkers, the order of the positions; unused ones are H or OH. Bridge positions count the residues as written; N and C are the ends. Square brackets hold non-standard residues; d marks the D form. Side chains are listed from the residue outwards. Ends that are not written are not given here. * marks the point of attachment. C18 diacid = O=C(O)CCCCCCCCCCCCCCCCC(=O)*; γGlu = O=C(O)[C@H](CCC(=O)[*:2])N[*:1]; Aib = CC(C)(N)C(=O)O

T1: human amylin receptor (calcitonin receptor co-expressed with receptor activity modifying protein, RAMP3) (human, UniProt P30988 25-474; O60896 24-148)
T1 sequence (looked up) 1: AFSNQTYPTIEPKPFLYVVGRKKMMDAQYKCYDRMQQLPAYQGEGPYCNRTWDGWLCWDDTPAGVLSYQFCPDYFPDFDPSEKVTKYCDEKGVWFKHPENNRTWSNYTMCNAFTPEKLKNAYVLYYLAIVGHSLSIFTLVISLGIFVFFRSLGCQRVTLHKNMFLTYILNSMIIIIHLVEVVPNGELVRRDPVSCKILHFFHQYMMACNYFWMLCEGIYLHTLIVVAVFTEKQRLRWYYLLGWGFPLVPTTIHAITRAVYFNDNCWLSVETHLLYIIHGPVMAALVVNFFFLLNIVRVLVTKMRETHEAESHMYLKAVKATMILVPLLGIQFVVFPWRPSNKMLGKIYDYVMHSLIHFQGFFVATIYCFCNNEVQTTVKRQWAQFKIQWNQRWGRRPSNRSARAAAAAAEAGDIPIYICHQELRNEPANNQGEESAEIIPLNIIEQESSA
T1 sequence (looked up) 2: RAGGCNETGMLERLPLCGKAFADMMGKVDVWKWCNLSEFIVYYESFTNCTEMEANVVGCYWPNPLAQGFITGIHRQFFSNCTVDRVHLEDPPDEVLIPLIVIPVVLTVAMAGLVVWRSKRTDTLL

T2: human calcitonin receptor (human, UniProt P30988 25-474)
T2 sequence (looked up): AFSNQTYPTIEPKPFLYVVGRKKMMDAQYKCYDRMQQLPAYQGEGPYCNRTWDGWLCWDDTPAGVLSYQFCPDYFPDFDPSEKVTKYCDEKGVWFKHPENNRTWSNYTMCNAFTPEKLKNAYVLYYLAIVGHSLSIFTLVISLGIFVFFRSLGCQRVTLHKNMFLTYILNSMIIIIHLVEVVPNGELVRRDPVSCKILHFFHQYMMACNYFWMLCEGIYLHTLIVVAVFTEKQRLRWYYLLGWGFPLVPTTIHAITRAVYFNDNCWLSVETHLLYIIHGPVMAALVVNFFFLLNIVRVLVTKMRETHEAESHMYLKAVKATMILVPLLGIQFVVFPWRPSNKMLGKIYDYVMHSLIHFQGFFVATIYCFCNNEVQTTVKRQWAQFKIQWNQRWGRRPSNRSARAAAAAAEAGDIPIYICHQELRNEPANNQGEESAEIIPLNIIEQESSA


Columns and labels:
[1] = molecular target: T1, human amylin receptor (calcitonin …); assay: cell-based or functional assay
[2] = molecular target: T2, human calcitonin receptor; assay: cell-based or functional assay

EC50 (cAMP production) [1]	Ratio (EC50 hCTR / EC50 hAMYR3) [1]	EC50 (cAMP production) [2]	Binder
0.256 nM	7	1.82 nM	K([γGlu-C18 diacid])KCNTATCATQRLANFLVHSS[Aib]NFGPILPPTNVGSRTY-NH2 (disulfide 3-8; N-terminus assumed; SMILES CC[C@H](C)[C@H](NC(=O)[C@@H]1CCCN1C(=O)CNC(=O)[C@H](Cc1ccccc1)NC(=O)[C@H](CC(N)=O)NC(=O)C(C)(C)NC(=O)[C@H](CO)NC(=O)[C@H](CO)NC(=O)[C@H](Cc1c[nH]cn1)NC(=O)[C@@H](NC(=O)[C@H](CC(C)C)NC(=O)[C@H](Cc1ccccc1)NC(=O)[C@H](CC(N)=O)NC(=O)[C@H](C)NC(=O)[C@H](CC(C)C)NC(=O)[C@H](CCCNC(=N)N)NC(=O)[C@H](CCC(N)=O)NC(=O)[C@@H](NC(=O)[C@H](C)NC(=O)[C@@H]1CSSC[C@H](NC(=O)[C@H](CCCCN)NC(=O)[C@@H](N)CCCCNC(=O)CC[C@H](NC(=O)CCCCCCCCCCCCCCCCC(=O)O)C(=O)O)C(=O)N[C@@H](CC(N)=O)C(=O)N[C@@H]([C@@H](C)O)C(=O)N[C@@H](C)C(=O)N[C@@H]([C@@H](C)O)C(=O)N1)[C@@H](C)O)C(C)C)C(=O)N[C@@H](CC(C)C)C(=O)N1CCC[C@H]1C(=O)N1CCC[C@H]1C(=O)N[C@H](C(=O)N[C@@H](CC(N)=O)C(=O)N[C@H](C(=O)NCC(=O)N[C@@H](CO)C(=O)N[C@@H](CCCNC(=N)N)C(=O)N[C@H](C(=O)N[C@@H](Cc1ccc(O)cc1)C(N)=O)[C@@H](C)O)C(C)C)[C@@H](C)O) [Peptide 73 (SEQ ID NO: 73)]
0.356 nM	13	4.57 nM	K([γGlu-γGlu-C18 diacid])KCNTATCATQRLANFLVHSS[Aib]NFGPILPPTNVGSRTY-NH2 (disulfide 3-8; N-terminus assumed; SMILES CC[C@H](C)[C@H](NC(=O)[C@@H]1CCCN1C(=O)CNC(=O)[C@H](Cc1ccccc1)NC(=O)[C@H](CC(N)=O)NC(=O)C(C)(C)NC(=O)[C@H](CO)NC(=O)[C@H](CO)NC(=O)[C@H](Cc1c[nH]cn1)NC(=O)[C@@H](NC(=O)[C@H](CC(C)C)NC(=O)[C@H](Cc1ccccc1)NC(=O)[C@H](CC(N)=O)NC(=O)[C@H](C)NC(=O)[C@H](CC(C)C)NC(=O)[C@H](CCCNC(=N)N)NC(=O)[C@H](CCC(N)=O)NC(=O)[C@@H](NC(=O)[C@H](C)NC(=O)[C@@H]1CSSC[C@H](NC(=O)[C@H](CCCCN)NC(=O)[C@@H](N)CCCCNC(=O)CC[C@H](NC(=O)CC[C@H](NC(=O)CCCCCCCCCCCCCCCCC(=O)O)C(=O)O)C(=O)O)C(=O)N[C@@H](CC(N)=O)C(=O)N[C@@H]([C@@H](C)O)C(=O)N[C@@H](C)C(=O)N[C@@H]([C@@H](C)O)C(=O)N1)[C@@H](C)O)C(C)C)C(=O)N[C@@H](CC(C)C)C(=O)N1CCC[C@H]1C(=O)N1CCC[C@H]1C(=O)N[C@H](C(=O)N[C@@H](CC(N)=O)C(=O)N[C@H](C(=O)NCC(=O)N[C@@H](CO)C(=O)N[C@@H](CCCNC(=N)N)C(=O)N[C@H](C(=O)N[C@@H](Cc1ccc(O)cc1)C(N)=O)[C@@H](C)O)C(C)C)[C@@H](C)O) [Peptide 74 (SEQ ID NO: 74)]

Second part, the binder before the results:

Binder	EC50 (cAMP production) [1]	Ratio (EC50 hCTR / EC50 hAMYR3) [1]	EC50 (cAMP production) [2]
{C18 diacid}-[γGlu]KCNTATCATQRLANFLVHSS[Aib]NFGPILPPTRVGSNTY-NH2 (disulfide 3-8; SMILES CC[C@H](C)[C@H](NC(=O)[C@@H]1CCCN1C(=O)CNC(=O)[C@H](Cc1ccccc1)NC(=O)[C@H](CC(N)=O)NC(=O)C(C)(C)NC(=O)[C@H](CO)NC(=O)[C@H](CO)NC(=O)[C@H](Cc1c[nH]cn1)NC(=O)[C@@H](NC(=O)[C@H](CC(C)C)NC(=O)[C@H](Cc1ccccc1)NC(=O)[C@H](CC(N)=O)NC(=O)[C@H](C)NC(=O)[C@H](CC(C)C)NC(=O)[C@H](CCCNC(=N)N)NC(=O)[C@H](CCC(N)=O)NC(=O)[C@@H](NC(=O)[C@H](C)NC(=O)[C@@H]1CSSC[C@H](NC(=O)[C@H](CCCCN)NC(=O)CC[C@H](NC(=O)CCCCCCCCCCCCCCCCC(=O)O)C(=O)O)C(=O)N[C@@H](CC(N)=O)C(=O)N[C@@H]([C@@H](C)O)C(=O)N[C@@H](C)C(=O)N[C@@H]([C@@H](C)O)C(=O)N1)[C@@H](C)O)C(C)C)C(=O)N[C@@H](CC(C)C)C(=O)N1CCC[C@H]1C(=O)N1CCC[C@H]1C(=O)N[C@H](C(=O)N[C@@H](CCCNC(=N)N)C(=O)N[C@H](C(=O)NCC(=O)N[C@@H](CO)C(=O)N[C@@H](CC(N)=O)C(=O)N[C@H](C(=O)N[C@@H](Cc1ccc(O)cc1)C(N)=O)[C@@H](C)O)C(C)C)[C@@H](C)O) [Peptide 71 (SEQ ID NO: 71)]	0.211 nM	7	1.39 nM
K([γGlu-γGlu-C18 diacid])KCNTATCATQRLANFLVHSS[Aib]NFGPILPPTRVGSNTY-NH2 (disulfide 3-8; N-terminus assumed; SMILES CC[C@H](C)[C@H](NC(=O)[C@@H]1CCCN1C(=O)CNC(=O)[C@H](Cc1ccccc1)NC(=O)[C@H](CC(N)=O)NC(=O)C(C)(C)NC(=O)[C@H](CO)NC(=O)[C@H](CO)NC(=O)[C@H](Cc1c[nH]cn1)NC(=O)[C@@H](NC(=O)[C@H](CC(C)C)NC(=O)[C@H](Cc1ccccc1)NC(=O)[C@H](CC(N)=O)NC(=O)[C@H](C)NC(=O)[C@H](CC(C)C)NC(=O)[C@H](CCCNC(=N)N)NC(=O)[C@H](CCC(N)=O)NC(=O)[C@@H](NC(=O)[C@H](C)NC(=O)[C@@H]1CSSC[C@H](NC(=O)[C@H](CCCCN)NC(=O)[C@@H](N)CCCCNC(=O)CC[C@H](NC(=O)CC[C@H](NC(=O)CCCCCCCCCCCCCCCCC(=O)O)C(=O)O)C(=O)O)C(=O)N[C@@H](CC(N)=O)C(=O)N[C@@H]([C@@H](C)O)C(=O)N[C@@H](C)C(=O)N[C@@H]([C@@H](C)O)C(=O)N1)[C@@H](C)O)C(C)C)C(=O)N[C@@H](CC(C)C)C(=O)N1CCC[C@H]1C(=O)N1CCC[C@H]1C(=O)N[C@H](C(=O)N[C@@H](CCCNC(=N)N)C(=O)N[C@H](C(=O)NCC(=O)N[C@@H](CO)C(=O)N[C@@H](CC(N)=O)C(=O)N[C@H](C(=O)N[C@@H](Cc1ccc(O)cc1)C(N)=O)[C@@H](C)O)C(C)C)[C@@H](C)O) [Peptide 70 (SEQ ID NO: 70)]	0.235 nM	23	5.41 nM
K([γGlu-γGlu-C18 diacid])CNTATCATQRLANFLVHSS[Aib]NFGPILPPTNVGSRTY-NH2 (disulfide 2-7; N-terminus assumed; SMILES CC[C@H](C)[C@H](NC(=O)[C@@H]1CCCN1C(=O)CNC(=O)[C@H](Cc1ccccc1)NC(=O)[C@H](CC(N)=O)NC(=O)C(C)(C)NC(=O)[C@H](CO)NC(=O)[C@H](CO)NC(=O)[C@H](Cc1c[nH]cn1)NC(=O)[C@@H](NC(=O)[C@H](CC(C)C)NC(=O)[C@H](Cc1ccccc1)NC(=O)[C@H](CC(N)=O)NC(=O)[C@H](C)NC(=O)[C@H](CC(C)C)NC(=O)[C@H](CCCNC(=N)N)NC(=O)[C@H](CCC(N)=O)NC(=O)[C@@H](NC(=O)[C@H](C)NC(=O)[C@@H]1CSSC[C@H](NC(=O)[C@@H](N)CCCCNC(=O)CC[C@H](NC(=O)CC[C@H](NC(=O)CCCCCCCCCCCCCCCCC(=O)O)C(=O)O)C(=O)O)C(=O)N[C@@H](CC(N)=O)C(=O)N[C@@H]([C@@H](C)O)C(=O)N[C@@H](C)C(=O)N[C@@H]([C@@H](C)O)C(=O)N1)[C@@H](C)O)C(C)C)C(=O)N[C@@H](CC(C)C)C(=O)N1CCC[C@H]1C(=O)N1CCC[C@H]1C(=O)N[C@H](C(=O)N[C@@H](CC(N)=O)C(=O)N[C@H](C(=O)NCC(=O)N[C@@H](CO)C(=O)N[C@@H](CCCNC(=N)N)C(=O)N[C@H](C(=O)N[C@@H](Cc1ccc(O)cc1)C(N)=O)[C@@H](C)O)C(C)C)[C@@H](C)O) [Peptide 72 (SEQ ID NO: 72)]	0.227 nM	18	4 nM
K([γGlu-γGlu-C18 diacid])CNTATCATQRLANFLRHSS[Aib]NFGPILPPTNVGSNTY-NH2 (disulfide 2-7; N-terminus assumed; SMILES CC[C@H](C)[C@H](NC(=O)[C@@H]1CCCN1C(=O)CNC(=O)[C@H](Cc1ccccc1)NC(=O)[C@H](CC(N)=O)NC(=O)C(C)(C)NC(=O)[C@H](CO)NC(=O)[C@H](CO)NC(=O)[C@H](Cc1c[nH]cn1)NC(=O)[C@H](CCCNC(=N)N)NC(=O)[C@H](CC(C)C)NC(=O)[C@H](Cc1ccccc1)NC(=O)[C@H](CC(N)=O)NC(=O)[C@H](C)NC(=O)[C@H](CC(C)C)NC(=O)[C@H](CCCNC(=N)N)NC(=O)[C@H](CCC(N)=O)NC(=O)[C@@H](NC(=O)[C@H](C)NC(=O)[C@@H]1CSSC[C@H](NC(=O)[C@@H](N)CCCCNC(=O)CC[C@H](NC(=O)CC[C@H](NC(=O)CCCCCCCCCCCCCCCCC(=O)O)C(=O)O)C(=O)O)C(=O)N[C@@H](CC(N)=O)C(=O)N[C@@H]([C@@H](C)O)C(=O)N[C@@H](C)C(=O)N[C@@H]([C@@H](C)O)C(=O)N1)[C@@H](C)O)C(=O)N[C@@H](CC(C)C)C(=O)N1CCC[C@H]1C(=O)N1CCC[C@H]1C(=O)N[C@H](C(=O)N[C@@H](CC(N)=O)C(=O)N[C@H](C(=O)NCC(=O)N[C@@H](CO)C(=O)N[C@@H](CC(N)=O)C(=O)N[C@H](C(=O)N[C@@H](Cc1ccc(O)cc1)C(N)=O)[C@@H](C)O)C(C)C)[C@@H](C)O) [Peptide 75 (SEQ ID NO: 75)]	0.161 nM	99	16 nM
